Experimental data published in patent US20050181995A1 (NEC SOFT, published 2005).
Substitutions are numbered along the chain they refer to.

Tests used:
KDR-IgG [1] = target: T1, KDR-IgG (UniProt P35968 20-764); assay: SPR (BIAcore 3000), KDR-IgG immobilised on CM5 chip
T1 construct: Immobilised on CM5 chip by amine coupling; also called KDR-lgG; VEGF receptor 2; not shown: IgG part of the fusion

Flt-1-IgG = target: T2, Flt-1-IgG (UniProt P17948 27-687); assay: SPR (BIAcore 3000), receptor-IgG immobilised on CM5 chip
T2 construct: Immobilised on CM5 chip by amine coupling; also called Flt-1-lgG; Flt-1-lg; not shown: IgG part of the fusion

KDR-IgG [2] = target: T1, KDR-IgG; assay: SPR (BIAcore 3000), KDR-IgG immobilised on CM5 chip; kdiss/kass
Description: An apparatus for measurement based on surface plasmon resonance technique: BlAcore 3000 (Biosensor) was used to evaluate the properties of binding to and dissociation from a VEGF receptor as for a VEGF-like protein. Experiment for analysis of the receptor binding was conducted at 25° C. using an HBS buffer (10 mM HEPES, pH 7.4, 150 mM NaCl, 3 mM EDTA, 0.005% polysorbate 20). Flt-1-lgG and KDR-lgG were immobilized on a CM5 sensor chip using an amine coupling kit (Biosensor), respectively.
They were injected into a flow cell at a flow rate of 20 μL/min. A signal from a blank flow channel as a negative control was subtracted as a background signal from the signal from the sample flow channel, for background correction. In the association process, while injecting a solution with the above protein concentration on the sensor chip at the above flow rate, increase in the resonance signal was detected. In the dissociation process, while injecting the above buffer on the sensor chip at the above flow rate, decrease in the resonance signal was measured.
A rate constant for association (kₐₛₛ), a rate constant for dissociation (kdiss) and the maximum binding amount (Rₘₐₓ) for binding to a VEGF receptor in each VEGF-like protein were calculated using a BIA evaluation 3.1 curve fitting software (Biosensor). An apparent dissociation constant (Kd) was calculated as a ratio of the rate constants (kdiss/kₐₛₛ) from the calculated values.

[3] = target: T3, Flt-4 (VEGF receptor type 3) (UniProt P35916 25-776); assay: SPR (BIAcore 3000), receptor immobilised on CM5 chip
T3 construct: Immobilised on CM5 chip; printed without an IgG suffix; also called VEGF receptor 3
T3 sequence: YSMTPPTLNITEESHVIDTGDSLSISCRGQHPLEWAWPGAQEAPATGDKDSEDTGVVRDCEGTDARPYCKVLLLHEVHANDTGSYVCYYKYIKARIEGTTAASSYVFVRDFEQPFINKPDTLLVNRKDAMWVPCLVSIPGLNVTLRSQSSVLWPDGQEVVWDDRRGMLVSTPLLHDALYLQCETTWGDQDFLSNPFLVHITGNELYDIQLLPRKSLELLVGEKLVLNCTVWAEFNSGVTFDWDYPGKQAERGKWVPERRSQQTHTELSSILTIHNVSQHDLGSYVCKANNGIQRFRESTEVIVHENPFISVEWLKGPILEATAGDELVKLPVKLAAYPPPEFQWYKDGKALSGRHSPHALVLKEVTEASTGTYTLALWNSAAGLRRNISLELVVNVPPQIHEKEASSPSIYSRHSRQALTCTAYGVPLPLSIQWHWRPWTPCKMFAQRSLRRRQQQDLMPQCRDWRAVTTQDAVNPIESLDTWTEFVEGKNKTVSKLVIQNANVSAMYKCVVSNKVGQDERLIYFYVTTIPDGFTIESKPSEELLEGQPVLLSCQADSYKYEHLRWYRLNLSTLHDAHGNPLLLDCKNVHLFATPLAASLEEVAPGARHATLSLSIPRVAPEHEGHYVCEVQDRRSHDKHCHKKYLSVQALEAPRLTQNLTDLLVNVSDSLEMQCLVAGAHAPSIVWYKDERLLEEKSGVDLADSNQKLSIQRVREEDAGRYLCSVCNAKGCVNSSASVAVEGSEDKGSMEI

T2 sequence (P17948 other isoform, or with tags, fused parts or gaps limits assumed): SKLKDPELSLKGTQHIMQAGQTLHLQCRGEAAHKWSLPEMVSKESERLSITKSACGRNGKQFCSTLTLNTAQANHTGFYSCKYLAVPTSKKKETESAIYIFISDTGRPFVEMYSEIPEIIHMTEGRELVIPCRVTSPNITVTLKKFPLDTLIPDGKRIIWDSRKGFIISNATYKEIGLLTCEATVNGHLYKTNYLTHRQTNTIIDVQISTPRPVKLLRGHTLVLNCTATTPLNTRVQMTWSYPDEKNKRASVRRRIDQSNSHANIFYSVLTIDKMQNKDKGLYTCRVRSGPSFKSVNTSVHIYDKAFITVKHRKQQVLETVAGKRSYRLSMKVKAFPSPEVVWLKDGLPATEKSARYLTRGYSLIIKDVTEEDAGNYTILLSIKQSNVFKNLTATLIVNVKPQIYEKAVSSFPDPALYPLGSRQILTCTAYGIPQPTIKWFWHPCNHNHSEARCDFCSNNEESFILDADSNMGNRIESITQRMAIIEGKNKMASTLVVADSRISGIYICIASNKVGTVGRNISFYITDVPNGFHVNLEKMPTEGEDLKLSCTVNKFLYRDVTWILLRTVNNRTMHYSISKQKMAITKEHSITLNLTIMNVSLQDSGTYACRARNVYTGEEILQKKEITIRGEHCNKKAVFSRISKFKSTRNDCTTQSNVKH
T1 sequence (P35968 20-764 limits assumed): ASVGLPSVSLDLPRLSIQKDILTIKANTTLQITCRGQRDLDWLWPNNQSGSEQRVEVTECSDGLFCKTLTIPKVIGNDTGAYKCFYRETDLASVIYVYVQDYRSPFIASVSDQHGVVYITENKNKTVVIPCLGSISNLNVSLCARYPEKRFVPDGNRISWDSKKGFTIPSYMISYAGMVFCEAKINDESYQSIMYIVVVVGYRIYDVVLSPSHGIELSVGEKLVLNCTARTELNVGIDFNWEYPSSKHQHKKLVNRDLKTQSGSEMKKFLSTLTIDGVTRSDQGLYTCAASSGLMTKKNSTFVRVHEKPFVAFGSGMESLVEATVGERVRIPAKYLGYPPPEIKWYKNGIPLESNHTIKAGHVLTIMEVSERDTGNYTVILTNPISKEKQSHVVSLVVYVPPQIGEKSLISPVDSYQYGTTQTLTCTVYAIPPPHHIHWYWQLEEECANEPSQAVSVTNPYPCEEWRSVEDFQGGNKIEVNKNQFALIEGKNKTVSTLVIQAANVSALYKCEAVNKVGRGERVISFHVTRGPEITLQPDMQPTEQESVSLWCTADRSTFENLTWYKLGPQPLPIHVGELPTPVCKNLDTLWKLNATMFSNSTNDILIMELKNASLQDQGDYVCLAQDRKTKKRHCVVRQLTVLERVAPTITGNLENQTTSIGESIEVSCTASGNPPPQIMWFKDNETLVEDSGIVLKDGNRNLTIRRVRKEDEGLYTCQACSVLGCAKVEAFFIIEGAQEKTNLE

B1: VR-1 (VEGF-like protein purified from the venom of Daboia russelli russelli) (ligand)
chain: EVRPFLDVYQRSACQTRETLVSILQEHPDEISDIFRPSCVAVLRCSGCCTDESMKCTPVGKHTADIQIMRMNPRTHSSKMEVMKFMEHTACECRPRWKQGEPEGPKEPR
modifications: pyrrolidone ring at N-terminus (opened with methanol-hydrochloric acid for sequencing)
notes: also called VR-1 protein
- koff (KDR-IgG [1]): 1.29e-05 s⁻¹
- kon (KDR-IgG [1]): 39000 M⁻¹ s⁻¹
- binding result (Flt-1-IgG): no binding (tested: 3, 10 and 30 nM)
- Kd (KDR-IgG [2]): 0.332 nM

B2: vammin (VEGF-like protein purified from the venom of Vipera ammodytes ammodytes) (ligand)
chain: EVRPFLEVHERSACQARETLVPILQEYPDEISDIFRPSCVAVLRCSGCCTDESLKCTPVGKHTVDLQIMRVNPRTQSSKMEVMKFTEHTACECRPRRKQGEPDGPKEKPR
modifications: pyrrolidone ring at N-terminus (opened with methanol-hydrochloric acid for sequencing)
notes: also called vammin protein
- binding result [3]: no binding (tested: 500 nM)
- koff (KDR-IgG [1]): 4.6e-06 s⁻¹
- kon (KDR-IgG [1]): 11200 M⁻¹ s⁻¹
- binding result (Flt-1-IgG): no binding (tested: 3, 10 and 30 nM)
- Kd (KDR-IgG [2]): 0.411 nM

B3: HF (hypotensive factor from the venom of Vipera aspis aspis) (ligand)
chain: B2 chain with P22S
notes: also called HF protein
- koff (KDR-IgG [1]): 9.6e-06 s⁻¹
- kon (KDR-IgG [1]): 28800 M⁻¹ s⁻¹
- binding result (Flt-1-IgG): no binding (tested: 3, 10 and 30 nM)
- Kd (KDR-IgG [2]): 0.334 nM
